One molecule from patent US12710427B2, “Anti-human neurotensin receptor 1 antibody and use thereof” (National Health Research Institutes, priority 2020, dated 2026) can be followed below.

“Also recorded” adds a separate entry of the source.

Series [1] concerns HA22T-Luc liver tumor xenografts. Put plainly: HA22T-Luc liver tumor xenograft model. The class given is in vivo, SCID mice. The source says: (§1) Immuodeficient male NU/NU nude mice (for H1299 and PC-3 xenograft study) and male Fox Chase SCID® mice (for HA22T-Luc xenograft study) of 7-week-old purchased from BioLASCO were housed in sterilized cages equipped with an air filter and sterile bedding materials at the Laboratory Animal Center of the National Health Research Institutes (NHRI), which is an AAALAC International accredited facility. All mice were fed with sterilized water and chow ad libitum under 12-hour light/12-hour dark cycle throughout the study. On the day of tumor cell inoculation, the number of viable cells was counted by using a hemocytometer with trypan blue staining under a light microscope. Cells were suspended in phenol red-free medium [RPMI1640 (H1299) or DMEM (HA22T-Luc)] or PBS (PC-3) and Matrigel™ (356237, Matrigel® Matrix, Corning, MA, United States) in 1:1 ratio. H1299 (1×10^6 cells), HA22T-Luc (5×10^6 cells) and PC-3 (1×10^6 cells) were implanted subcutaneously into the left flank of either nude or SCID mice using a 1 mL syringe (needle 24G×1 inch). Tumor dimensions were measured with a digital caliper, and the tumor volume in mm^3 was calculated by the formula: Volume=(length×width^∧2)/2. Tumor-bearing mice were grouped (n=5-8 per group) and administered when the average tumor volume was approximately at 200 mm^3. In the 3 individual xenograft studies, human IgG (HU-GF-ED, Lot#120916DG, Molecular Innovations, MI, USA), h7C3-4, h7C3-3-MMAE and h7C3-4-MMAE were diluted in 1× Dulbecco's Phosphate Buffered Saline (02-023-5A, Biological Industries, CT, USA) freshly before dosing at concentration of 2.5 mg/ml. Cisplatin (KEMOPLAT, 1 mg/mL, 87200009AA, Fresenius Kabi, Bad Homburg, Germany) was purchased. In the H1299 xenograft study, tumor-bearing mice were divided into 5 groups (6 mice per group): Human IgG −10 mg/Kg group (negative control), Cisplatin—7 mg/Kg group (positive control), h7C3-3-MMAE —10 mg/Kg group, h7C3-4 −10 mg/Kg group and h7C3-4-MMAE −10 mg/Kg group. The mice were intravenously injected with 4 mL/Kg of dose volume by tail vein twice per week for 3 weeks, except for the Cisplatin group, which was once per week for 3 weeks. In the HA22T-Luc xenograft study, tumor-bearing mice were divided into 3 groups (8 mice per group): Human IgG −10 mg/Kg group (negative control), h7C3-3-MMAE −10 mg/Kg group and h7C3-4-MMAE (ADC) −10 mg/Kg group. The mice were intravenously injected with 4 mL/Kg of dose volume by tail vein twice per week for 2 weeks. In the PC-3 xenograft study, tumor-bearing mice were divided into 2 groups: no treatment group (5 mice) and h7C3-4-MMAE (ADC) −10 mg/Kg (8 mice). The mice in h7C3-4-MMAE −10 mg/Kg group were intravenously injected with 4 mL/Kg of dose volume by tail vein twice per week for 3 weeks. Each treatment was based on the body weight. Body weight and tumor size were measured twice weekly.
To compare the anti-tumor efficacies of h7C3-3-MMAE and h7C3-4 MMAE, an experiment was performed with 5×10^6 HA22T-luc liver cancer cells inoculated subcutaneously to SCID mice. Tumor-bearing mice were divided into 3 groups (n=8). When the tumors reached a volume of 200 mm^3, 10 mg/Kg of human IgG, h7C3-3-MMAE and h7C3-4 MMAE were administered intravenously, respectively, twice weekly for four doses.

Series [2] concerns PC3 prostate tumor xenograft. Put plainly: PC3 prostate tumor xenograft model. The class given is in vivo, nude mice.
Description: as §1, with “The mice were intravenously injected with 4 mL/Kg of dose volume by tail vein twice per week for 3 weeks, except for the Cisplatin group, which was once per week for 3 weeks. In the HA22T-Luc xenograft study, tumor-bearing mice were divided into 3 groups (8 mice per group): Human IgG −10 mg/Kg group (negative control), h7C3-3-MMAE −10 mg/Kg group and h7C3-4-MMAE (ADC) −10 mg/Kg group. The mice were intravenously injected with 4 mL/Kg of dose volume by tail vein twice per week for 2 weeks. In the PC-3 xenograft study, tumor-bearing mice were divided into 2 groups: no treatment group (5 mice) and h7C3-4-MMAE (ADC) −10 mg/Kg (8 mice). The mice in h7C3-4-MMAE −10 mg/Kg group were intravenously injected with 4 mL/Kg of dose volume by tail vein twice per week for 3 weeks. Each treatment was based on the body weight.” left out, “weekly. […]” for “weekly.”

The subject of the next series is A549. The experiment in a line: In vitro cell cytotoxicity assay (CellTiter-Glo). The class given is cell-based. The procedure:
(§2) The number of living cells were determined using the CellTiter-Glo® Luminescent Cell Viability Assay (Promega G7571). Cells were plated in 96-well opaque Costar plates (Cat number 136101). In brief, 500-2500 cells in 90 μL media were added to each well in quadruplicate and allowed to adhere for 16 hours. Anti-NTSR1 (dose range: 0-500 nM), anti-NTSR1-MMAE (dose range: 0-500 nM) or Paclitaxel (dose range: 0-100 nM) were added in […] 72-120 hours, medium was removed, and 200 μL of CellTiter-Glo® viability reagent contain culture medium (1:1) was added to each well and placed on an orbital shaker in the dark for 2 minutes. The plate was allowed to sit at RT for 10 minutes before being read on a GloMax® Explorer Multimode Microplate Reader (GM3500).
Background: ATP-based viability assays read luminescence as a measure of living cells.

The subject of the next series is PC-3. Put plainly: In vitro cell cytotoxicity assay (CellTiter-Glo). The format is cell-based. The procedure:
as §2

Series [3] concerns H1299 lung tumor xenograft. The experiment in a line: H1299 lung tumor xenograft model. The format is in vivo, nude mice.
Description: as §1
Nude mice were subcutaneously inoculated with NTSR1-expressing cells, H1299 (1×10^6 cells per mouse). When the tumors reached a volume of 200 mm^3, the tumor-bearing mice were grouped (n=6) and administered intravenously with human IgG (negative control), h7C3-3-MMAE, h7C3-4 and h7C3-4-MMAE, respectively, at 10 mg/Kg twice weekly for six doses. The Cisplatin (positive control) was administered intravenously at 7 mg/Kg weekly for three doses.

[4] abbreviates: 10 mg/Kg i.v. twice weekly for four doses.
Where [5] appears, read: 10 mg/kg i.v. twice weekly for six doses.

B1: h7C3-4-MMAE: h7C3-4 conjugated with MMAE via cleavable valine-citrulline linker, average 3.8-4 MMAE per antibody (conjugate)
VH: QVQLQQPGTVLVRPGASVKLSCKASGYAFTSSWIHWAKQRPGQGLEWIGQIRPNSGNTYYNEKFKVKATLTVDTSSSTAYVELSSLTSEDSAVYYCARYHYGFDYWGQGTLVTVSS
VL: DVLMTQTPLSLPVSLGDQASISCRSSQSIVHSNGNTYLEWYLQKPGQSPKLLIYKVSNRFSGVPDRFSGSGSGTDFTLTISRVEAEDLGVYYCFQGAHLPWTFGGGTKLEIKR
Turning to B1, in series [1] (setting [4]), the “tumor volume on day 15” value was “tumor regression” and the “tumor volume until 36 days” value is on record as “prolonged regression of tumor”. Also, in series [1] (10 mg/kg, HA22T-Luc xenograft mice), the body weight result is on record as “did not show body weight loss”. In series [2] (setting [5]), the antitumor efficacy result is “highly efficacious” and the “tumor volume until day 60” value is reported as “prolonged regression of tumor”. In series [2] (10 mg/kg, PC3 xenograft mice), the “body weight / general physiological conditions” value is given as “did not induce any abnormalities; also recorded: did not cause body weight loss”. Moreover, the 50% inhibitory concentration (IC50) (usually the midpoint of a concentration-inhibition curve) in the series on A549 was 33.5 ± 3.32 nM. This molecule also displayed a half-inhibitory concentration (IC50) in the series with PC-3 of 55.4 ± 5.17 nM. Besides, in series [3] (setting [5]), the “tumor growth (tumor volume) until/on day 35” value is recorded as “Prolonged regression of tumor”. Besides, the “tumor growth (tumor volume) on day 18” value in series [3] (10 mg/kg i.v. twice weekly for six doses, vs human IgG 10 mg/kg and Cisplatin 7 mg/kg) is “inhibited the tumor growth more potently”. In addition, the body weight entry in series [3] (10 mg/kg, H1299 xenograft mice) is given as “did not show body weight loss”.
